Experimental data published in article PMC11685456, “Structural insights into GrpEL1-mediated nucleotide and substrate release of human mitochondrial Hsp70” (Nature Communications, 2024).
Changes are numbered by the printed parent chain. Names and notes keep the numbering of the source.

B1: human GrpEL1 wild type, without its mitochondrial targeting sequence (natural protein, UniProt Q9HAV7 28-217, looked up)
chain: CTATKQKNSGQNLEEDMGQSEQKADPPATEKTLLEEKVKLEEQLKETVEKYKRALADTENLRQRSQKLVEEAKLYGIQAFCKDLLEVADVLEKATQCVPKEEIKDDNPHLKNLYEGLVMTEVQIQKVFTKHGLLKLNPVGAKFDPYEHEALFHTPVEGKEPGTVALVSKVGYKLHGRTLRPALVGVVKEA
notes: GrpEL1, human mitochondrial nucleotide exchange factor; printed mass 25.5 kDa a protomer; Homodimer; no tag removal is described; also called GrpEL1WT; HsGrpEL1; source: E. coli LOBSTR, purified (Ni Sepharose, Strep-Tactin, Superdex 200)
B2: human GrpEL1 Y173A, without its mitochondrial targeting sequence (natural protein, UniProt Q9HAV7 28-217, looked up)
chain: B1 chain with Y146A
notes: GrpEL1, human; Two protomers (GrpEL1-A and GrpEL1-B) were modelled in the Y173A structures; also called HsGrpEL1_(Y173A); source: E. coli LOBSTR, purified as GrpEL1WT (Ni Sepharose, Strep-Tactin, Superdex 200)

What was measured:
[1] = molecular target: T1, human mortalin R126W (mitochondrial Hsp70, HSPA9), without its mitochondrial targeting sequence (human, UniProt P38646 47-679, R126W); experiment: SEC-MALS; the mortalin_(R126W)-GrpEL1 complex; 152.5 kDa species; conditions: both partners purified
T1 construct: mortalin (mitochondrial Hsp70, HSPA9), human; printed mass 70.2 kDa; R126W is associated with EVEN-PLUS syndrome; residues 46-639 were modelled in the cryo-EM map; No tag removal is described; also called Hsmortalin_(R126W); mtHsp70; source: E. coli LOBSTR, co-expressed with HsHep1, purified (HisTrap, HiTrap Q, Superdex 200)

[2] = molecular target: the molecule itself; experiment: cryo-EM structure; high molecular weight SEC peak concentrated and vitrified on UltraAuFoil grids; Titan Krios G4, 300 keV; nucleotide-free complexes
[3] = molecular target: T1, human mortalin R126W (mitochondrial …); experiment: SEC; purified mortalin (20 uM), GrpEL1 (40 uM) and Pam16/Pam18 chimera (12 uM) incubated 1 h at room temperature, then Superdex 200 Increase 10/300 GL in 20 mM Tris pH 8, 150 mM KCl, 0.5 mM TCEP; fractions seen by SDS-PAGE; conditions: both partners purified

T1 sequence (P38646 47-679 R126W): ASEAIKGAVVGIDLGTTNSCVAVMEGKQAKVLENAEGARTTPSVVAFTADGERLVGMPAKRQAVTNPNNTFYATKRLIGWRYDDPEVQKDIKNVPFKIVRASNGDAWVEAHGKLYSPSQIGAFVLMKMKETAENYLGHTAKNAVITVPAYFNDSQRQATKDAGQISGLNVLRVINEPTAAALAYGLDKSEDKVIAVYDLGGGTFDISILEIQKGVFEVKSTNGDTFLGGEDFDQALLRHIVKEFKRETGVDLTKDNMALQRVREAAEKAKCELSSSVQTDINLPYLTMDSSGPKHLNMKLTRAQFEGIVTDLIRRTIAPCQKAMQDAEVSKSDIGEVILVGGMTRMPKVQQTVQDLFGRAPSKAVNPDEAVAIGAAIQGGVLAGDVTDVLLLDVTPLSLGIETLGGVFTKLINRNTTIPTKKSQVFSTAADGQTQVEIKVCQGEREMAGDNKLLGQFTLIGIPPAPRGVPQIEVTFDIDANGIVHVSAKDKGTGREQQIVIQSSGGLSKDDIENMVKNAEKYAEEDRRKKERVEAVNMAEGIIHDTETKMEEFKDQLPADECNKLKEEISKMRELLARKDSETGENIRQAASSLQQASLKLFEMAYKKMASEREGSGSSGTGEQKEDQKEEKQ

Row | Binder | stoichiometry N [1] | stoichiometry N [2] | binding result [3] | binding result [2]
1 | B1 | 2 GrpEL1 per mortalin | 2 |  | 
2 | B2 |  |  | binds | binds
